# From US20250215091A1, “Anti-GAL3 Antibodies and Compositions” (Les Laboratoires Servier, priority 2022, published 2025)
# Positions count from the first letter of the chain named.
# T1: Gal3 CRD domain from rat (rat, UniProt P08699 118-262, limits assumed)
# T1 construct: domain: CRD domain; also called rat Gal3-CRD
# T1 sequence (looked up): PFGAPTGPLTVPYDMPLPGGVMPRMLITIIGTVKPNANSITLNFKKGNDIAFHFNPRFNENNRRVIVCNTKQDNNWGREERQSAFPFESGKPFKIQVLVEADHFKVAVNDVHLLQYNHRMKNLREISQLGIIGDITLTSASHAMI
# T2: Gal3 CRD domain from dog (dog, UniProt P38486 152-296, limits assumed)
# T2 construct: domain: CRD domain; also called dog Gal3-CRD
# T2 sequence (looked up): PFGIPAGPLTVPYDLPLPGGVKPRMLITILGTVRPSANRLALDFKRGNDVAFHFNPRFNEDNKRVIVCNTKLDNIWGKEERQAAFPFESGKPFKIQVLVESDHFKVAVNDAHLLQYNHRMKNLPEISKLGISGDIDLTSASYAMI
# B1: anti-Gal3 antibody D06 (antibody, V domains shown)
# VH: EVQLVESGGSLVKPGGSLRLSCAASGFTFSNYNMNWVRQAPGKGLEWISSIYGSSRYIYYADFVKGRFTISRDNAKNSLYLQMNSLRAEDTAVYYCVRSGYGGMDVWGRGTLVTVSS
# VL: QSVLTQPASVSGSPGQSITISCAGTSSDVGGYNGVSWYQQHPGKAPKLMIYYDSYRPSGVSNRFSGSKSGNTASLTISGLQAEDEADYYCSSGTDYSTRVFGGGTKLEIK
# B2: anti-Gal3 antibody E07 (antibody, V domains shown)
# VH: B1 VH with S50N, G100Y
# VL: B1 VL with N33Y, G34S, Y55N, G93Y, D95G
# B3: anti-Gal3 antibody D11 (antibody, V domains shown)
# VH: B1 VH with G100S
# VL: B1 VL with Y32S, N33Y, G34N, S36A, G93Y, D95G
# B4: anti-Gal3 antibody H07 (antibody, V domains shown)
# VH: B1 VH with S50N, Y52D, G100Y
# VL: B1 VL with N33Y, G34N, S36A, G93S, D95G
# B5: anti-Gal3 antibody E01 (antibody, V domains shown)
# VH: EVQLVESGGSLVKPGGSLRLSCAASGFTFSNNYMNWVRQAPGKGLEWISNINGASRNIAYADFVKGRFTISRDNAKNSLYLQMNSLRAEDTAVYYCVRSSDYDGGMDVWGRGTLVTVSS
# VL: B1 VL with Y32N, N33S, G34Y, G93S, D95Y, Y96G
# B6: anti-Gal3 antibody E02 (antibody, V domains shown)
# VH: EVQLVESGGSLVKPGGSLRLSCAASGFTFSNYAMNWVRQAPGKGLEWISSIYGSSRSISYADFVKGRFTISRDNAKNSLYLQMNSLRAEDTAVYYCVRSSYNYYYGNGMDVWGRGTLVTVSS
# VL: B1 VL with N33G, G93S, D95S
# B7: anti-Gal3 antibody G03 (antibody, V domains shown)
# VH: B1 VH with N33A, G100Y, Y101N
# VL: B1 VL with N33Y, G34N, S36A, G93S, D95G
# B8: anti-Gal3 antibody E12 (antibody, V domains shown)
# VH: B1 VH with N33A, Y57S, G100N, Y101N, G102A
# VL: B1 VL with N33Y, G34D, G93Y, D95S
# B9: anti-Gal3 antibody B12 (antibody, V domains shown)
# VH: EVQLVESGGSLVKPGGSLRLSCAASGFTFSNDDMNWVRQAPGKGLEWISSIDGSSRSIYYADFVKGRFTISRDNAKNSLYLQMNSLRAEDTAVYYCVRSSGYSGGGMDVWGRGTLVTVSS
# VL: B1 VL with Y32S, N33Y, G34N, S36A, Y52S, G93Y, D95S, Y96N, T98A
# Biological target: T1, Gal3 CRD domain from rat
# Assay: SPR single-cycle kinetics, captured antibody, Gal3-CRD 0.5-50 nM
# Protocol: (§1) The CM5 sensor surface was first immobilized with an anti-human Fc mAb using a standard protocol. The entire sensor surface was first activated by injecting a 1:1 (v/v) mixture of 400 mM EDC and 100 mM NHS at a flow rate of 10 μL/minute for 7 minutes. Monoclonal anti-human Fc antibody (Millipore AP113), 25 μg/mL in Na acetate pH5, 360 s were flowed at 10 μL/minute to reach 10000 RU on both flow cells followed by the injection of 1 M ethanolamine, pH8.5 for 7 minutes at a flow rate of 10 μL/minute. During the entire immobilization procedure, HBS-P was used as the running buffer.
# (§2) Antibody samples were prepared at 5 μg/ml and were injected for 30 seconds at 10 μL/minute. In general, 400 to 680 resonance units of antibodies were captured on the chip.
# (§3) Kd values were also determined by SPR using […] kinetics analysis. A total of 5 concentrations of Gal3 CRD domain from human, dog, rat and cynomolgus (Novalix) [0.5-50] nM were injected over the antibody capture surfaces for 210 seconds followed by a dissociation phase of 600 seconds at 30 μL/minute. At the end of each cycle, capture surfaces were regenerated by 2 injections of glycine pH 1.5, for 30 seconds at 10 μL/minute, followed by an extra wash with glycine pH 1.5. Fresh antibody was captured at the beginning of each cycle.
row,Kd,Binder
1,4.8 nM,B1
2,15 nM,B2
3,8.6 nM,B3

# Biological target: T3, Gal3 CRD domain from cynomolgus (cynomolgus, UniProt A0A7N9CYL1 103-247)
# T3 construct: domain: CRD domain; also called cynomolgus Gal3-CRD
# Assay: as above
# Protocol: as §1, §2, §3
row,Kd,Binder
1,10 nM,B1
2,7.4 nM,B2
3,11 nM,B3

# Biological target: T2, Gal3 CRD domain from dog
# Assay: as above
# Protocol: as §1, §2, §3
row,Kd,Binder
1,12 nM,B1
2,23 nM,B2
3,26 nM,B3

# Biological target: T4, CRD domain of human Galectin-3 (human, UniProt P17931 106-250)
# T4 construct: Histidine-tagged; also called hu-Gal3-CRD; Hu-Gal3-CRD
# T4 sequence (P17931 106-250 limits assumed): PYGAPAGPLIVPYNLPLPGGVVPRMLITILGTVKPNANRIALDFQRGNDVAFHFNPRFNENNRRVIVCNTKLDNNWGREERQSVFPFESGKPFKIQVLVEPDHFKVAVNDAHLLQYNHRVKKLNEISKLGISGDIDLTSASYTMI
# Assay: as above
# Protocol: as §1, §2, §3
row,Kd,Binder
1,15 nM,B1
2,14 nM,B2
3,26 nM,B3

# Biological target: T5, full length mouse Galectin-3 (mouse, UniProt P16110 2-264)
# T5 construct: Printed as 'full length'; recombinant, immobilized through a histidine tag; also called m-Gal3-FL; murine Gal3
# T5 sequence (P16110 2-264 limits assumed): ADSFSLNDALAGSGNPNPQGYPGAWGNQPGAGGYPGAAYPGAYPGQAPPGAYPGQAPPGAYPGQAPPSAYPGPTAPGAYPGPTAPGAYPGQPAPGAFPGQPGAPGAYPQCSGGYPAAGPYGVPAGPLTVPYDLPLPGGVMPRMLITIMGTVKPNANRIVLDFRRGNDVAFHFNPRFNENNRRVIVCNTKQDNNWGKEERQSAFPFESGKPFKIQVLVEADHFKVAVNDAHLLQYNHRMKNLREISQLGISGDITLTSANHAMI
# Assay: dose-response ELISA on immobilized m-Gal3-FL, IgG
# Protocol: (§4) To determine the half maximal effective concentration (EC50) of the antibodies, ELISA dose-response experiments were performed on Hu-Gal3-FL and on m-Gal3-FL.
# (§5) Hu-Gal3-FL and m-Gal3-FL were immobilized at 3 μg/mL through their His-tag on functionalized microplates as before. A 3.3-fold serial dilution was carried-out with the purified IgGs, added to the wells containing immobilized Hu-Gal3-FL or m-Gal3-FL and detected with an anti-Fab.HRP antibody.
row,EC50,Binder
1,0.16 nM,B1
2,0.3 nM,B2
3,88 nM,B4
4,0.99 nM,B3
5,25.9 nM,B5
6,76 nM,B6
7,13.6 nM,B7

# Biological target: T4, CRD domain of human Galectin-3
# Assay: competitive ELISA, inhibition of ASF binding to immobilized Hu-Gal3-CRD
# Protocol: The inhibitory properties and IC50 of the anti-Gal3 antibodies were determined in an ELISA competitive assay by measuring the binding of ASF to immobilized CRD domain of human Gal3 in absence or presence of the antibodies at different concentrations.
# The inhibition assay was performed on Hu-Gal3-CRD which was immobilized at 1 μg/mL through its His-tag on functionalized microplates. A 2-fold or 3-fold serial dilution was carried-out with the purified IgGs and added to the wells with immobilized Hu-Gal3-CRD. ASF (A1908-Sigma reference) was added at 8 μg/mL in each well with or without IgGs. ASF binding to Hu-Gal3-CRD was detected with the HRP-labeled anti-ASF sheep antibody. IC50 were estimated according to the model equation Y=Bottom+(Top−Bottom)/(1+(X/IC50)). Indicative maximal percentages of inhibition were obtained with the formula: 100%−(((mean of bottom plateau values of IgGs)×100%)/mean of irrelevant IgG values)
IC50,Max % inhibition,Binder
5.1 nM,82%,B1
1.5 nM,89%,B2
6 nM,74%,B4
2.2 nM,99%,B3
3.2 nM,63%,B5
5.2 nM,65%,B6
1.8 nM,83%,B7

# Biological target: T5, full length mouse Galectin-3
# Assay: ratio of the ELISA EC50 values on Hu-Gal3-FL and m-Gal3-FL
# Protocol: as §4, §5
row,Ratio (Human/mouse Gal3 EC50 ratio),Binder
1,2,B1
2,4,B2
3,37,B4
4,3,B3
5,2,B5
6,2,B6
7,26,B7

# Biological target: T6, full length human Galectin-3 (human, UniProt P17931 2-250)
# T6 construct: Printed as 'full length'; recombinant, immobilized through a histidine tag; also called hu-Gal3-FL; Hu-Gal3-FL
# T6 sequence (P17931 2-250 limits assumed): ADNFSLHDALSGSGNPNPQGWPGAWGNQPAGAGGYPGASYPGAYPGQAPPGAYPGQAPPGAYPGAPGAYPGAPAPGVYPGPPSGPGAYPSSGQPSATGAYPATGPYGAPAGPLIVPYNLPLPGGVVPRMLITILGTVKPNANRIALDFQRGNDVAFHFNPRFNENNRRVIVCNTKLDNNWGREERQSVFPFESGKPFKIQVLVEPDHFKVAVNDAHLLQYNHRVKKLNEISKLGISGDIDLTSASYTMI
# Assay: SPR Biacore T-200, antibody captured by anti-human Fc, Gal3 in solution
# Protocol: as §1, §2
row,Kd,Binder
1,13 nM,B1
2,9 nM,B2
3,6.64 nM,B8
4,5.65 nM,B4
5,8.8 nM,B9
6,15 nM,B3
7,6.26 nM,B5
8,7.38 nM,B6
9,6 nM,B7

# Biological target: T5, full length mouse Galectin-3
# Assay: as above
# Protocol: as §1, §2
row,Kd,Binder
1,1.34 nM,B1
2,4.14 nM,B2
3,7.7 nM,B8
4,4.86 nM,B4
5,3.47 nM,B9
6,2.8 nM,B3
7,7.81 nM,B5
8,4.13 nM,B6
9,4.53 nM,B7

# Biological target: T7, human full-length Galectin-7 (human, UniProt P47929 1-136)
# T7 construct: full-length; Histidine-tagged; also called Hu-Gal7; Gal7
# T7 sequence (P47929 whole entry): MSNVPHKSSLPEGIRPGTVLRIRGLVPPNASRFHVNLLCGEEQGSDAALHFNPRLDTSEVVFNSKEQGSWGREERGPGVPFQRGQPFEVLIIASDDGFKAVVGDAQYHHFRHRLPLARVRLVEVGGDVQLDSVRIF
# Assay: ELISA on immobilised antigen (3 µg/mL), purified IgG at 15-20 µg/mL, anti-Fab.HRP, OD 450 nm
# Protocol: (§6) IgG specificity to Gal3 was tested by checking the absence of binding on human Gall and Gal7 by ELISA.
# (§7) Hu-Gall and Hu-Gal7 were immobilized at 3 μg/mL. Purified IgGs were added into the wells (15-20 μg/mL final concentration) and detected with an anti-Fab.HRP antibody. Rabbit antibodies directed against Gall (Abcam ab25138 reference) and Gal7 (Abcam ab108623 reference) were used at 5 μg/mL as antigen-coating positive controls and detected with an anti-rabbit.HRP secondary antibody (7074S-Cell Signaling reference).
row,binding result,Binder
1,no binding (tested: 15-20 µg/mL),B1
2,no binding (tested: 15-20 µg/mL),B2
3,no binding (tested: 15-20 µg/mL),B8
4,no binding (tested: 15-20 µg/mL),B4
5,no binding (tested: 15-20 µg/mL),B9
6,no binding (tested: 15-20 µg/mL),B3
7,no binding (tested: 15-20 µg/mL),B5
8,no binding (tested: 15-20 µg/mL),B6
9,no binding (tested: 15-20 µg/mL),B7

# Biological target: T8, human full-length Galectin-1 (human, UniProt P09382 2-135)
# T8 construct: full-length; Histidine-tagged; also called Hu-Gall; Gall
# T8 sequence (P09382 2-135 limits assumed): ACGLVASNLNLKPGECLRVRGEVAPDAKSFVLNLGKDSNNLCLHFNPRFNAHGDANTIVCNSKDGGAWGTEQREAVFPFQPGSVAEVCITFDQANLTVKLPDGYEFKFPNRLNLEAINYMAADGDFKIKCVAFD
# Assay: as above
# Protocol: as §6, §7
row,binding result,Binder
1,no binding (tested: 15-20 µg/mL),B1
2,no binding (tested: 15-20 µg/mL),B2
3,no binding (tested: 15-20 µg/mL),B8
4,no binding (tested: 15-20 µg/mL),B4
5,no binding (tested: 15-20 µg/mL),B9
6,no binding (tested: 15-20 µg/mL),B3
7,no binding (tested: 15-20 µg/mL),B5
8,no binding (tested: 15-20 µg/mL),B6
9,no binding (tested: 15-20 µg/mL),B7

# Biological target: T6, full length human Galectin-3
# Assay: dose-response ELISA on immobilized Hu-Gal3-FL, IgG
# Protocol: as §4, §5
row,EC50,Binder
1,0.26 nM,B1
2,0.07 nM,B2
3,2.4 nM,B4
4,0.37 nM,B3
5,14.3 nM,B5
6,34 nM,B6
7,0.52 nM,B7
